Laboratory results published in patent publication US7083511.
Several values for one entry are separate records, joined by “and”; a condition that tells them apart may be missing. Identical values can stand only once.

How the values were obtained:
RPKTSSF = test system: T1, RPKTSSF
T1 sequence: RPKTSSF

RPRAATF = test system: T2, RPRAATF
T2 sequence: RPRAATF

KPRTSSF = test system: T3, KPRTSSF
T3 sequence: KPRTSSF

RPRTSSK = test system: T4, RPRTSSK
T4 sequence: RPRTSSK

Crosstide (GRPRTSSFAEG) = test system: T5, Crosstide (GRPRTSSFAEG)
T5 sequence: GRPRTSSFAEG

RPRTSSE = test system: T6, RPRTSSE
T6 sequence: RPRTSSE

PRTSSF = test system: T7, PRTSSF
T7 sequence: PRTSSF

RPRTSSV = test system: T8, RPRTSSV
T8 sequence: RPRTSSV

RPRTSTF = test system: T9, RPRTSTF
T9 sequence: RPRTSTF

RPRTSAF = test system: T10, RPRTSAF
T10 sequence: RPRTSAF

RPRTSSA = test system: T11, RPRTSSA
T11 sequence: RPRTSSA

RPRTSS = test system: T12, RPRTSS
T12 sequence: RPRTSS

RPRTSSF = test system: T13, RPRTSSF
T13 sequence: RPRTSSF

RPRTSSL = test system: T14, RPRTSSL
T14 sequence: RPRTSSL

GST-SGK2α[S356D]
kinase activity toward peptide (30 µM), relative to peptide 1 (Crosstide) (RPKTSSF): 8% | kinase activity toward peptide (30 µM), relative to peptide 1 (Crosstide) (RPRAATF): 61% | kinase activity toward peptide (30 µM), relative to peptide 1 (Crosstide) (KPRTSSF): < 1% | kinase activity toward peptide (30 µM), relative to peptide 1 (Crosstide) (RPRTSSK): 128% | kinase activity toward peptide (30 µM), relative to peptide 1 (Crosstide) (Crosstide (GRPRTSSFAEG)): 100% | kinase activity toward peptide (30 µM), relative to peptide 1 (Crosstide) (RPRTSSE): 34% | kinase activity toward peptide (30 µM), relative to peptide 1 (Crosstide) (PRTSSF): < 1% | kinase activity toward peptide (30 µM), relative to peptide 1 (Crosstide) (RPRTSSV): 124% | kinase activity toward peptide (30 µM), relative to peptide 1 (Crosstide) (RPRTSTF): 192% | kinase activity toward peptide (30 µM), relative to peptide 1 (Crosstide) (RPRTSAF): < 1% | kinase activity toward peptide (30 µM), relative to peptide 1 (Crosstide) (RPRTSSA): 82% | kinase activity toward peptide (30 µM), relative to peptide 1 (Crosstide) (RPRTSS): 8% | kinase activity toward peptide (30 µM), relative to peptide 1 (Crosstide) (RPRTSSF): 182% | kinase activity toward peptide (30 µM), relative to peptide 1 (Crosstide) (RPRTSSL): 185%

GST-ΔN-SGK3[S419D]
kinase activity toward peptide (30 µM), relative to peptide 1 (Crosstide) (RPKTSSF): 48% | kinase activity toward peptide (30 µM), relative to peptide 1 (Crosstide) (RPRAATF): 56% | kinase activity toward peptide (30 µM), relative to peptide 1 (Crosstide) (KPRTSSF): < 1% | kinase activity toward peptide (30 µM), relative to peptide 1 (Crosstide) (RPRTSSK): 200% | kinase activity toward peptide (30 µM), relative to peptide 1 (Crosstide) (Crosstide (GRPRTSSFAEG)): 100% | kinase activity toward peptide (30 µM), relative to peptide 1 (Crosstide) (RPRTSSE): 67% | kinase activity toward peptide (30 µM), relative to peptide 1 (Crosstide) (PRTSSF): < 1% | kinase activity toward peptide (30 µM), relative to peptide 1 (Crosstide) (RPRTSSV): 139% | kinase activity toward peptide (30 µM), relative to peptide 1 (Crosstide) (RPRTSTF): 156% | kinase activity toward peptide (30 µM), relative to peptide 1 (Crosstide) (RPRTSAF): < 1% | kinase activity toward peptide (30 µM), relative to peptide 1 (Crosstide) (RPRTSSA): 123% | kinase activity toward peptide (30 µM), relative to peptide 1 (Crosstide) (RPRTSS): 18% | kinase activity toward peptide (30 µM), relative to peptide 1 (Crosstide) (RPRTSSF): 137% | kinase activity toward peptide (30 µM), relative to peptide 1 (Crosstide) (RPRTSSL): 113%

GST-PKBα
kinase activity toward peptide (30 µM), relative to peptide 1 (Crosstide) (RPKTSSF): 26% | kinase activity toward peptide (30 µM), relative to peptide 1 (Crosstide) (RPRAATF): 55% | kinase activity toward peptide (30 µM), relative to peptide 1 (Crosstide) (KPRTSSF): 6% | kinase activity toward peptide (30 µM), relative to peptide 1 (Crosstide) (RPRTSSK): 48% | kinase activity toward peptide (30 µM), relative to peptide 1 (Crosstide) (Crosstide (GRPRTSSFAEG)): 100% | kinase activity toward peptide (30 µM), relative to peptide 1 (Crosstide) (RPRTSSE): 21% | kinase activity toward peptide (30 µM), relative to peptide 1 (Crosstide) (PRTSSF): < 1% | kinase activity toward peptide (30 µM), relative to peptide 1 (Crosstide) (RPRTSSV): 67% | kinase activity toward peptide (30 µM), relative to peptide 1 (Crosstide) (RPRTSTF): 208% | kinase activity toward peptide (30 µM), relative to peptide 1 (Crosstide) (RPRTSAF): < 1% | kinase activity toward peptide (30 µM), relative to peptide 1 (Crosstide) (RPRTSSA): 26% | kinase activity toward peptide (30 µM), relative to peptide 1 (Crosstide) (RPRTSS): < 1% | kinase activity toward peptide (30 µM), relative to peptide 1 (Crosstide) (RPRTSSF): 160% | kinase activity toward peptide (30 µM), relative to peptide 1 (Crosstide) (RPRTSSL): 69%

GST-ΔN-SGK(61-431)[S422D]
kinase activity toward peptide (30 µM), relative to peptide 1 (Crosstide) (KPRTSSF): 2% and < 1% | kinase activity toward peptide (30 µM), relative to peptide 1 (Crosstide) (Crosstide (GRPRTSSFAEG)): 100% | kinase activity toward peptide (30 µM), relative to peptide 1 (Crosstide) (PRTSSF): < 1% | kinase activity toward peptide (30 µM), relative to peptide 1 (Crosstide) (RPRTSAF): < 1% | kinase activity toward peptide (30 µM), relative to peptide 1 (Crosstide) (RPRTSS): 5.1% and 10% | kinase activity toward peptide (30 µM), relative to peptide 1 (Crosstide) (RPRTSSF): 154% and 135%
